The values that follow come from patent US20110217317A1 (published 2011).

The target in the assay is T1, Rhesus D antigen (human, UniProt Q02161 2-417).
T1 construct: whole, on cells; Presented on RhD-positive erythrocytes in all assays; also called RhD; RhD antigen
T1 sequence (looked up): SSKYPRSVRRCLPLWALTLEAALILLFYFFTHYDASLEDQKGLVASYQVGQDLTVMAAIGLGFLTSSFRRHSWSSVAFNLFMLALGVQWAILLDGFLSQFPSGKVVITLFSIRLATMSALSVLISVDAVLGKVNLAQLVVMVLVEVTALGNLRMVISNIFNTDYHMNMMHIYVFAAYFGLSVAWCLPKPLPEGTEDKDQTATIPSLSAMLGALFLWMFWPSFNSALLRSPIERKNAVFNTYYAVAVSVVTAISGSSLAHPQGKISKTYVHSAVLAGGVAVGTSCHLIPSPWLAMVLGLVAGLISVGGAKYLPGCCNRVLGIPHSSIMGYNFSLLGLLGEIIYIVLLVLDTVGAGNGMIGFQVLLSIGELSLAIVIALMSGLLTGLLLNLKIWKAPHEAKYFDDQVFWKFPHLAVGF
Put plainly: Fab screening on red blood cells (agglutination/FACS).

Numbering of substitutions follows the chain as printed.

B1: RhD306.223E11 (Fab, V domains shown)
VH: QVQLVESGGGVVQPGRSLRLSCAASGFTFSSYGMHWVRQAPGKGLEWVAVIWYDGSNKYYADSVKGRFTISRDNSKNTLYLQMNTLRDDDTAVYYCAREGTLYSSSWYRRYYYYGMDAWGQGTTVTVSS
VL: EIVLTQSPGTLSLSPGERVTLSCRPSRYIASDYLAWYQLRPGQAPKLLIYGASSRATGIPDRFSGVGSPTDFTLTISRLEPEDFAMYYCHYSGGSPPYPFGQGTRLDIKR
notes: Tested as Fab (periplasmic extract)
As for B1, the binding result is “binds”.

B2: RhD321.187G08 (Fab, V domains shown)
VH: EVQLVESGGGLVKPGGSLRLSCAASGFTFRSYSMNWVRQAPGKGLEWVSSIGSSSIYTYSADSVKGRFTISRDNAKNSLYLQMNSLRAEDTAVYYCARGEPLNYDYIWGRSRLTIHWGQGTLVTVSS
VL: LNFMLTQPHSVSESPGKTVTISCTRSSGSIASNYMQWYQQRPGSSPTTVIYEDNRRPSGVPDRFSGSIDSSSNSASLTISGLKTEDEADYYCQSYDSNNWVFGGGTKLTVLG
notes: as for B1
Consider B2, for which the binding result is “binds”.

B3: RhD305.181E06 (Fab, V domains shown)
VH: QVQLVESGGGVVQPGRSLRLSCAASGFTFSSYGMHWVRQAPGKGLEWVAGIWYDGSNKYYADSVKGRFTISRDNSRNTMYLQMNSLRAEDTAVYYCAREQGGYSSSWYRRYYYYNMDLWGQGTTVTVSS
VL: EIVLTQSPGSLSLSPGERATLSCRASQSVSSSYLAWYQQKPGQAPRLLIYGPSSRATGIPDRFSGSGSGTDFTLTISRLEPEDFAVYYCQHFGNSRGTFGQGTKVEIRR
notes: as for B1
For B3, the binding result is “binds”.

B4: RhD317.144A02 (Fab, V domains shown)
VH: QVQLQESGPGLVKPSGTLSLTCAVSGGSIRGSNWWSWVRQPPGKGLEWIGEIHHGGSTNYNPSLKSRVTISVDKSKNRFSLKLSSVTAADTAVYYCARGTSYYDSSGYSFRGLVAFDIWGQGTMVTVSS
VL: EIVLTQSPGTLSLSPGERATLSCRASQSVSSAFLAWYQQKPGQAPRLLIYGASSRATGIPDRFSGSGSGTDFTLTISRLEPEDFAVYYCQQYGSFSITFGQGTRLEIKR
notes: as for B1
With B4, the binding result is “binds”.

B5: RhD304.164B06 (Fab, V domains shown)
VH: QVQLVQSGGGVVQPGRSLRLSCAASGFTFSSYGMHWVRQAPGKGLEWVAVIWYDGSNKYYADSVKGRFTISRDNSKNTLYLQMNSLRAEDTAVYYCARETVVVAAKIRNHYYYAMDVWGQGTTVTVSS
VL: DIQMTQSPSSLSASLGGTVTLTCRSSQFISRYLNWYQQHPGKVPRLLISGASRLQRGVPSRFTGGGSGTDFTLTIKNVQPDDIATYFCQHSYRSGRAFGQGTTVEVKR
notes: as for B1
B5: the binding result is reported as “binds”.

B6: RhD302.160B10 (Fab, V domains shown)
VH: QVQLVESGGGVVQPGRSLRLSCAASGFTFSSYGMHWVRQAPGKGLEWVAFISYDGSNKYYADSVKGRFTISRDNSKNTLSLQMNSLRAEDTAVYYCAKEHGYYRSSWYRNYYYYGMDVWGQGTTVTVSS
VL: DIQLTQSPSSLSASVGDRVTITCRASQSISSYLNWYKQRPGKAPKLLIYAASTLQSGVPSRFSGSGSGTDFALTISSLQAEDFATYYCQQTYSTLWTFGQGTKVEITR
notes: as for B1
With B6, the binding result is reported as “binds”.

B7: RhD303.160B11 (Fab, V domains shown)
VH: B6 VH with G15E, F50V, S80Y, E99D, H100E, G101V, Y102G, R104S, N110R, G115A
VL: EIVLTQSPGTLSLSPGETATLSCRASQSVSDRDLAWYQQKSGQSPRLLMYGGSTRAPGIPVRFSGSGSGTEFTLTISSLQSEDFAIYYCQHYHDWPPTFGQGTRLEIKR
notes: as for B1
As for B7, the binding result was “binds”.

B8: RhD307.230E11 (Fab, V domains shown)
VH: QVQLVETGGGVVQPGRSLRLSCAASGFTFSSYGMHWVRQAPGKGLEWVAGIWYDGSNKYYGDSVKGRFTISRDNSRNTLYLHMNSLRADDTAVYYCAREHGGSRSGWYTLRLAYYFDYWGQGTLVTVSS
VL: DIQLTQSPSSLSASVGDRVTITCRASQYINVYLNWYQHKAGRAPKLLIYAASNLQSGVPPRFIGSGSGTDFTLTISSLQSEDFATYYCLQSFTVPRTFGPGTKVDVKR
notes: as for B1
Consider B8, for which the binding result is “binds”.

B9: RhD324.231F07 (Fab, V domains shown)
VH: EVQLVESGGGLVQPGRSLRLSCVASGFTFSSYWMHWVRQVPGKGLVWVSRINVDGKSTSYADSVKGRFTISRDNAKNTLYLQMNSLRAEDTAVYYCARDPRRFLEWARYGMDVWGRGTTVTVSS
VL: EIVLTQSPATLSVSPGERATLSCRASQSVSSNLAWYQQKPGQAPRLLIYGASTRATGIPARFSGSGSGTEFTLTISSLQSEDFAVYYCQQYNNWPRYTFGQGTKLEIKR
notes: as for B1
As to B9, the binding result is recorded as “binds”.

B10: RhD189.181E07 (Fab, V domains shown)
VH: QVQLVESGGGVVQPGRSLRLSCAASGFTFSSYGMHWVRQAPGKGLEWVAVIWYDGSNKYYADSVKGRFTISRDNSKNTLYLQMNSLRAEDTAVYYCARDMVTMVRGAYRNYYYYGMDVWGKGTTVTVSS
VL: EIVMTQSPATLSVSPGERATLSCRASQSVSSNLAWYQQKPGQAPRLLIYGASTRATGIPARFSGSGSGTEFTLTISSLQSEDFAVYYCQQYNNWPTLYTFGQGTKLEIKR
notes: as for B1
Regarding B10, the binding result is recorded as “binds”.

B11: RhD163.119A02 (Fab, V domains shown)
VH: QVQLQESGPGLVKPSETLSLTCTVSGGSISSYYWSWVRQPPGKGLEWIGYIYYSGSTNYNPSLKSRVTIALDTSKNQFSLKLRSVTAADTAVYFCTRDWRQYGSAIRGSRYYYGMDVWGQGTTVTVSS
VL: EIVLTQSPGTLSLSPGERATLSCRASQNPRRNFLAWYQQKPGQAPRLLIYAASTRATGIPDRFSGSGSGTDFTLTIDRLEPEDSAVYYCQVYGSSPLYTFGQGTKVEMKR
notes: as for B1
Consider B11, for which the binding result is given as “binds”.

B12: RhD162.119G12 (Fab, V domains shown)
VH: QVQLVESGGGLVKPGGSLRLSCAASGFGFSAYSMNWVRQAPGKGLEWVSSITSTTTYYADSVKGRFSISRDNAKSTLYLRMNSLRAEDTAVYYCVREIAFRGSTYSRWSYYFDFWGQGTLVTVSS
VL: DIQLTQSPSSVSASVGDSVTITCRASQAVSGWVAWYQQKPGKAPKLLIFGLSNLEDGVPSRFSGSGSATDFTLTITGLQPEDLATYYCLQANRFPLSFGGGTRVEIKR
notes: as for B1
Consider B12, for which the binding result is recorded as “binds”.

B13: RhD319.187A11 (Fab, V domains shown)
VH: QVQLVESGGGVVQPGRSLRLSCAASGFTFSTYGMHWVRQAPGKGLEWVAVIWYDGSNKNYADSVKGRFTISRDNSKNTLYLQMNSLRAEDTAVYYCARDLQGYRSSWYRMYYYYGMDVWGQGTTVTVSS
VL: QTVVTQEPSLTVSPGGTVTLTCASSTGAVTSGYYPNWFQQKPGQAPRALIYSTSNKHSWTPARFSGSLLGGKAALTLSGVQPEDEAEYYCLLYYGGAQRWVFGGGTILTVLG
notes: as for B1
As to B13, the binding result was “binds”.

B14: RhD323.229B07 (Fab, V domains shown)
VH: B10 VH with M100W, M103R, V104S, R105S, G106N, A107W, K121Q
VL: DIQMTQSPSSLSASVGDRVTITCRASQSISSYLNWYQQKPGKAPKLLIYAASTLQSGVPSRFSGSGSGTDFTLTISSLQPEDFATYYCQQYYRTPTWTFGQGTKVEIKR
notes: as for B1
For the molecule B14, the binding result is listed as “binds”.
